Assays:
human CD3 [1] = molecular target: T1, human CD3 (human, UniProt P07766 23-207; P09693 23-182; P04234 22-171); assay: flow competition on Jurkat, 100 nM unlabeled mAb; competitor AF488-SK7 1.5 nM
T1 construct: whole, on cells; also called CD3 on Jurkat T cells; CD3 on primary human T cells
Experimental: (§1) In order to evaluate whether anti-CD3 monoclonal antibodies bind to the same epitope region, flow cytometry competition experiments on Jurkat cells were performed.
(§2) To that effect, a fixed concentration of the indicated AF488-labeled mAb were incubated with 100 nM of unlabeled monoclonal antibodies to assess if their binding capacity was impaired in presence of unlabeled mAbs. […] The AF488-OKT3 mIgG2b was labeled in-house using AlexaFluor488 protein labelling kit (Invitrogen #A10235) following manufacturer's instruction. The free dye removal step was done using Zeba™ Spin Desalting Columns, 7K MWCO (Thermo Scientific #89890). The final product was analyzed by UPLC-SEC to ensure the integrity of the labeled mAb.

human CD3 [2] = molecular target: T1, human CD3; assay: flow competition on Jurkat, 100 nM unlabeled mAb; competitor AF488-UCHT1 5 nM
Experimental: as §1, §2

human CD3 [3] = molecular target: T1, human CD3; assay: apparent KD (KDapp), flow cytometry titration on Jurkat cells
Experimental: Unless otherwise stated, all media are kept are 4° C. and all incubations are performed on wet ice. Exponentially growing Jurkat cells were centrifuged and resuspended in complete medium at a cell density of 2×10⁶ cells/mL. Fifty μL/well of cells were distributed in a polypropylene v-bottom 96 well plate and serial 1/3 dilutions of purified mAbs starting at 300 nM were added and incubated for 2 hours. Cells were washed twice by centrifugation and further incubated with a FITC labeled F(ab′)2 goat anti-mouse antibody (Fc specific, #115-096-071, Jackson Immunoresearch, Cedarlane, Burlington, ON) for an hour. Cells were washed and re-suspended in medium containing Propidium iodide to exclude dead cells from analysis. Samples were filtered through a 60 μm nylon mesh filter plate (Millipore, Ireland) to remove cell aggregates. Flow cytometry analyses were performed on 2,000 viable single-cells events gated on forward scattering, side scattering parameters and propidium iodide dye exclusion using a BD-LSRFortessa flow cytometer (Becton-Dickinson Biosciences, CA, USA) and a standard filter set using BD FACSDiva™ acquisition software, according to manufacturer's instructions.

human CD3 [4] = molecular target: T1, human CD3; assay: cell-based or functional assay
human CD3 [5] = molecular target: T1, human CD3; assay: flow competition on Jurkat, 100 nM unlabeled mAb; competitor AF488-OKT-3 mIgG2b 1.5 nM
Experimental: as §1, §2

Cynomolgus CD3 = molecular target: T2, Cynomolgus CD3 (Cynomolgus, UniProt Q95LI5 22-198; Q95LI7 23-181; Q95LI8 22-171); assay: apparent KD (KDapp), flow cytometry titration on cynomolgus HSC-F T cell line
T2 construct: whole, on cells; also called CD3 on Cynomolgus PBMCs; CD3 on HSC-F Cynomolgus T cell line
Experimental: To characterize potential cross-reactivity of the anti-human CD3 mAbs to NHP T cells, dose response flow cytometry titration studies were performed on both freshly obtained Cynomolgus PBMCs (Comparative Medicine and Animal Resources Centre—McGill University) or the Cynomolgus derived T cell line, HSC-F (Non-Human Primate Reagent Resource—NIH). Binding studies on fresh Cynomolgus PBMCs was performed on a subset of anti-CD3 mAbs (FIG. 4) whereas the Herpesvirus saimiri immortalized Cynomolgus T cell line HSC-F was employed for further evaluations (FIGS. 5A to 5C). KDapp values were calculated using a non-linear regression model of one-site binding with Hill slope (GraphPad Prism) and tabulated (Table 3b). Similar KDapp values for anti-CD3 mAb 1E2 obtained from binding to fresh Cynomolgus PBMCs (KDapp=0.28 nM) or the HSC-F T cell line (KDapp=0.39 nM) indicated the HSC-F cell line was a suitable surrogate for ex vivo NHP T cells.
HSC-F T cells obtained from the Non-Human Primate Reagent Resource (NIH) were maintained in culture in RPMI media containing 20% FBS and 40 IU/mL recombinant human IL2. 100K HSC-F cells in logarithmic cell growth were treated with graded doses of the anti-CD3 mAbs starting at 100 nM in staining buffer (SB; PBS/1% BSA/0.01% NaN3) for 2 hours at 4° C. in 96 w V-bottom plates. Following plate washing with SB, the cell pellets were resuspended with 25 μL of goat (Fab′)₂ anti-mouse IgG (H+L)− APC secondary antibody (final 5 μg/mL), incubated for 30 minutes at 4° C., followed by flow cytometry analysis. The commercial NHP cross-reactive SP34.2 anti-CD3 mAb (BD Biosciences), recombinant anti-human OKT-3 IgG2b (in house produced) and non-specific mIgG were employed as controls. 20K live events were acquired on a BD LSRFortessa flow analyzer and mean fluorescence intensities (MFI) calculated after subtraction of secondary antibody alone values. Using GraphPad Prism software, the data were analyzed using a one site specific binding with Hill slope non-linear regression model to calculate KDapp and BMax values (See Table 2).

human CD3 [6] = molecular target: T1, human CD3; assay: flow cytometry, hybridoma supernatant on CD3+ Jurkat cells
Experimental: Cells were stained with either negative control mouse IgG (Jackson Immunoresearch cat #115-000-003) or an anti-GFP 3E6 mAb supernatant or tested hybridoma supernatant. Specific binding was reflected by the increase in the mean fluorescent intensity of antibody binding to Jurkat T-cells (FIGS. 1A to 1F, grey histograms) compared to the Jurkat CD3 negative cell line J.RT3-T3.5 (FIGS. 1A to 1F, open histograms). AF488 labeled positive control mAb OKT3 was also analyzed.

human CD3 [7] = molecular target: T1, human CD3; assay: apparent KD (KDapp), flow cytometry titration on purified primary human T cells
Experimental: The binding characteristics of the purified anti-CD3 mAbs were assessed in titration studies on purified human primary T cells from different donor samples. Fresh ex vivo peripheral blood mononuclear cells (PBMCs) were obtained via density centrifugation over Ficoll-Paque using standard procedures and untouched T cell fractions obtained from PBMCs by negative pan-T cell selection and magnetic cell sorting. Starting from 300 nM concentrations of the anti-CD3 mAbs, eight point binding curves were generated from the resultant mean fluorescence intensity (MFI) values obtained through detection of labelled secondary antibody to bound CD3 in flow cytometry experiments (FIGS. 3A and 3B). Both commercial mouse anti-human CD3 mAb (OKT-3; Biolegend) and an in house generated IgG1 version of OKT-3 were employed as positive controls together with a non-specific mouse IgG serving as a negative binding control. Following curve fit analysis using one-site specific binding with Hill slope, the KDapp (concentration needed to achieve a half-maximum binding at equilibrium) for each mAb was calculated (Table 2).
Eight point binding titrations were performed with the anti-CD3 mAbs starting at either 300 or 100 nM on freshly purified human T cells obtained through negative selection from PBMC fractions. Briefly, 1×10⁵ human T cells (50 μL of staining buffer (SB; PBS/1% BSA/0.01% NaN3) were incubated with graded dilutions of the anti-CD3 mAbs in SB ([…]) for 2 hours at 4° C. in 96 w U-bottom plates, followed by plate washing with SB ([…]). Cell pellets were resuspended with 25 μL of a 0.25 mg/mL solution of the goat (Fab′)₂ anti-mouse IgG (H+L)− APC secondary antibody in SB, incubated at 4° C. (30 min.), washed 1× with SB, and resuspended for flow analysis. Recombinant anti-human OKT-3 IgG2b (in house produced) and non-specific mIgG were employed similarly as positive and negative controls respectively. 10K live events were acquired on a BD LSRFortessa flow analyzer and mean fluorescence intensities (MFI) calculated after subtraction of secondary antibody alone values. Using GraphPad Prism software, the data were analyzed using a one site specific binding with Hill slope non-linear regression model to calculate KDapp and BMax values (See Table 2).

human CD3 [8] = molecular target: T1, human CD3; assay: flow competition on Jurkat, 100 nM unlabeled mAb; competitor AF488-SP34.2 20 nM
Experimental: as §1, §2

T2 sequence (Q95LI5 22-198, chain 1 of 3): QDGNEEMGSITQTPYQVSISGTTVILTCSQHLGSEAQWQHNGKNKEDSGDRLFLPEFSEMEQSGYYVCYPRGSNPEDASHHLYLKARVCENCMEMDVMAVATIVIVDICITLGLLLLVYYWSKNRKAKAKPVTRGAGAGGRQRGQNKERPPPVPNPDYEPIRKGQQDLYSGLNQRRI
T2 sequence (Q95LI7 23-181, chain 2 of 3): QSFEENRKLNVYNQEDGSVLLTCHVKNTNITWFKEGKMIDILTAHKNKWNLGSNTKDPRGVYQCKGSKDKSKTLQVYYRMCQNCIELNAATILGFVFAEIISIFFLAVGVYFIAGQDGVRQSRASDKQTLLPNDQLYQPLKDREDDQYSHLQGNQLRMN
T2 sequence (Q95LI8 22-171, chain 3 of 3): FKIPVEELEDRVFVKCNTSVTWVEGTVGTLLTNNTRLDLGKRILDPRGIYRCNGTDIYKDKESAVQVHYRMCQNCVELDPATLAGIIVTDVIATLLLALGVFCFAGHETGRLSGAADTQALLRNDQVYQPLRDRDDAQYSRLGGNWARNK

| Binder | % residual fluorescence of labeled mAb (human CD3 [1]) | % residual fluorescence of labeled mAb (human CD3 [2]) | Kd (human CD3 [3]) | % max ref. OKT3 (dTomato activation) (human CD3 [4]) | EC50 of dTomato induction (CD69 promoter), Jurkat-CD69-dTomato cells, 24 h (human CD3 [4]) | % residual fluorescence of labeled mAb (human CD3 [5]) | Kd (Cynomolgus CD3) | MFI (human CD3 [6]) | Kd (human CD3 [7]) | % residual fluorescence of labeled mAb (human CD3 [8]) |
| --- | --- | --- | --- | --- | --- | --- | --- | --- | --- | --- |
| F332-7E3 (antibody, mouse IgG2a, V domains shown, also called F332-7E3-2) VH: QVQLQQPGAELGKPGTSVKLSCKASGYTFTSYWIHWVKQRPGQGLEWIGNINPNSGSINYNEKFKSKATLTVDKSSSTAYMQLSTLTSEDFAVYYCTRDTSGQYYFDYWGQGTTLTVSS VL: DIVMSQSPSSLAVSAGEKVTMSCKSSQSLLNSRTRKNYLAWYQQKPGQSPKLLIYWASTRESGVPDRFTGSGSGTDFTLTISSVQAEDLAVYYCKQSYHLRTFGGGTKLEIK | 45% | 67% | 1300 pM | 75% | 0.24 µg/mL | 79% | 310 pM | 354 MFI | 220 pM | 12% |
| F332-7B7 (antibody, mouse IgG2a, V domains shown, also called F332-7B7-2) VH: QVQLQQPGTELGKPGTSVKLSCKASGYTFTNYWMHWVKQRPGQGLEWIGNINPNSGSTNYNQKFKSKATLTLDKSSSTAYMQFSTLTSEDSAVYYCTRDSSGQYYFDYWGQGTTLTVSS VL: DIVMSQSPSSLAVSAGEKVTMSCKSSQSLLNSRTRKNYLAWYQQKPGQSPKLLIYWASTRESGVPDRFTGSGSGTDFTLTISSVQAEDLAVYYCIQSFHLRTFGGGTKLEIK | 53% | 79% | 600 pM | 97% | 0.25 µg/mL | 86% | 280 pM | 302 MFI | 230 pM | 9% |
| F332-8F7 (antibody, mouse IgG2a, V domains shown, also called F332-8F7-3) VH: QVQLQQPGAELGKPGTSVKLSCKASGYTFTSYWIHWVKQRPGQGLEWIGNINPNSGSTNYNEKFKNKATLTVDKSSSTASMQLSTLTSEDSAVYYCTRDISGQYYFDYWGQGTTLTVSS VL: DIVMSQSPSSLAVSTGGEVTMSCKSSQSLLNSRTRKNYLAWYQQKPGQSPKLLIYWASTRESGVPDRFTGSGSGTDFTLTISSVQAEDLAVYYCIQSYSLRTFGGGTKLGIK | 39% | 59% | 800 pM | 80% | 0.22 µg/mL | 87% | 970 pM | 312 MFI | 260 pM | 10% |
| F332-12F6 (antibody, mouse IgG2a, V domains shown, also called F332-12F6-2) VH: QVQLQQPGAELGKPGTSVKLSCKASGYTFTSYWIHWVKQRPGQGLEWIGNINPNSGSTNYNEKFKSKATLTVDKSSSTAYMQLSTLTSEDSAVYYCTRDISGQYYFDYWGQGTTLTVSS VL: DIVMSQSPSSLAVSAGEKVTMSCKSSQSLLNSRTRKSYLAWYQQKPGQSPKLLIYWASTRESGVPDRFTGSGSGTDFTLTISSVQAEDLAVYYCIQSYNLRTFGGGTKLEIK | 42% | 63% | 600 pM | 87% | 0.25 µg/mL | 82% | 610 pM | 369 MFI | 200 pM | 7% |
